Columns and labels:
MCF-7 breast carcinoma = assay: IgG binding to tumour cell line, flow cytometry; set-up: species or system human; settings: MCF-7, compared to the prostate cancer cells
Description: (§1) FIG. 6—Binding of B1, B11, C11 IgG, to tumour cell lines of different origin. The antigen distribution of antigens targeted by the B1, B11, and C11 antibodies on different carcinoma cell lines was investigated by flow-cytometry.
(§2) The antigen distribution of human antibody targeted antigens, mainly for B11, on different carcinoma cell lines was investigated. Cells (MCF-7 and MDA MB 435S breast carcinoma, JAR and JEG-3 chorio-carcinoma, A549 lung carcinoma, TCC-SUP urinary bladder carcinoma, MDA MB 435 melanoma, HPAC, PANC-1 and BxPC-3 pancreatic carcinoma, PC-3 and DU145 prostate carcinoma, LS174 T, CaCo2, and Lovo colorectal carcinoma, and THP-1 monocytic leukaemia cells), were washed in PBS, and resuspended at 4×10^6 cells/ml in Complete Medium (200,000 cells/50 […] sample). […] Cells were incubated with either of the antibodies for 1 hour on ice, washed by resuspension in PBS/BSA 0.5%, centrifuged at 1200 rpm for 5 min, and complete aspiration of the supernatants was undertaken. Cells were incubated with PE-conjugated Goat F(ab′)2 anti-Human IgG (Caltag Laboratories, Cat no: H10104), diluted 1/50 in PBS/BSA 0.5%, for 30 min, on ice. Following resuspension of in 300 μl PBS/BSA 0.5%, cells were analysed for IgG binding using a FACScan instrument.

[1] = tested on: THP-1 monocytic leukaemia cells; assay: IgG binding to tumour cell line, flow cytometry; set-up: species or system human
Description: as §1, §2

EJM = assay: SCID/xenograft MM model, subcutaneous; type: in vivo, mouse; settings: EJM (ICAM-1+), 2 mg/kg twice weekly from one day after tumor cell injection
Experimental: (§3) Since high expression of the BI-505 epitope in human MM was found, BI-505 was screened for in vivo anti-myeloma activity using SCID/xenograft models comprising four well-characterized MM cell-lines. […] Twice weekly dosing with 2 mg/kg of BI-505 starting one day after tumor cell injection reduced myeloma tumor growth in mice xenografted with ICAM-1-expressing cell lines EJM, RPMI-8226, and NCI-H929 by 98%, 96%, and 99%, respectively (FIGS. 17A and B).
(§4) All studies were conducted in accordance with guidelines of the Lund University Hospital, Sweden or University of Utah, Salt Lake City, USA following approval from the local ethical committee for animal care and use. BI-505 efficacy and potency was examined in subcutaneous and disseminated, prophylactic and therapeutic, experimental MM models comprising myeloma cell lines RPMI-8226, U266, EJM and OPM-2. The in vivo efficacy of BI-505 was compared to clinically approved drugs dexamethasone, melphalan, bortezomib and revlimid used at clinically relevant doses in therapeutic disseminated models comprising RPMI-8226 or primary patient myeloma cells, the latter following injection of patient cells in implanted of human fetal bone in SCID mice. For subcutaneous grafting, 1-5×10^6 tumor cells (RPMI-8226, NCI-H929, EJM, OPM-2, ARH-77, or Daudi) were subcutaneously injected at a volume of 100 μl into the left flank of anesthetized mice as described in the Supplemental Information. […] Treatment with saline, isotype control IgG, bortezomib, lenalidomide, dexamethasone, or BI-505 started on day 5 (RPMI-8226). Treatment with melphalan started on day 10. BI-505 or isotype IgG mAb was administered i.v. at 2 mg/kg/inj twice weekly for 8 weeks; bortezomib at 1 mg/kg/inj once weekly for 8 weeks; lenalidomide orally at 2 mg/kg/inj for 2 cycles consisting of 5 days of treatment and 2 days of wash out; melphalan i.v. at 3 mg/kg/inj once weekly for 8 weeks; and dexamethasone at 6 mg/kg/inj three times weekly for 2 weeks. […] The role of macrophages and NK cells for BI-505 in vivo antitumor activity was assessed using anti-asialo antibody treatment, clodronate liposome treatment or NK-cell deficient mice. […]
(§5) Treatment with antibodies by intraperitoneal injection started either 1 day after cell inoculation (prophylactic model) or when tumors reached approximately 100 mm^3 (established model). […] Macrophage and NK cell depletion was assessed upon termination of tumor bearing mice exposed to effector cell depleting agents (see above), spleens were removed and splenocytes isolated by mincing through a cell strainer (70 μm nylon mesh, BD Falcon 352350), erythrocytes were removed by lysis according to manufacturer (BD Pharm Lyse 555899, BD Biosciences).

NCI-H929 = assay: SCID/xenograft MM model, subcutaneous; type: in vivo, mouse; settings: NCI-H929 (ICAM-1+), 2 mg/kg twice weekly from one day after tumor cell injection
Experimental: as §3, §4, §5

OPM-2 = assay: SCID/xenograft MM model, subcutaneous; type: in vivo, mouse; settings: ICAM-1-negative OPM-2, 2 mg/kg twice weekly
Experimental: as §3, §4, §5

RPMI-8226 = assay: SCID/xenograft MM model, subcutaneous; type: in vivo, mouse; settings: RPMI-8226 (ICAM-1+), 2 mg/kg twice weekly from one day after tumor cell injection
Experimental: as §3, §4, §5

T cells = assay: T cell proliferation (CFSE); type: cell-based, human; settings: immobilized (air-dried or wet coated) or in solution
Experimental: (FIG. 23F) Antibody induced T-cell proliferation. CFSE-labeled T-cells were incubated with BI-505, isotype control IgG or anti-CD3 (okt-3) IgG hyperimmobilised to cell culture plates by air-drying “A” or wet-coating “W”. Cells were cultured for 6 days, and T cell proliferation was monitored by flow-cytometry as decreased CFSE signals.
Cytokine release and T cell proliferation are thought to be common causes of mild and severe adverse reactions to antibody therapy. In order to further investigate any undesirable effects of BI-505 on ICAM-1 expressing immune cells, we therefore assessed putative effects of BI-505 on peripheral blood mononuclear cell (PBMC) cytokine release and T cell proliferation. In order to maximize the chances of identifying any PBMC-agonistic properties of BI-505, we used two different antibody-coating protocols in which the antibody was hyper-cross-linked as previously described (Stebbings et al., 2007).
T cells used in the proliferation assay were stained with CFSE (carboxyfluorescein diacetate, succinimidyl ester; Invitrogen). The CFSE-labeled cells were seeded at a density of 150,000 cells/well in wet and air-dried antibody-coated plates. The cells were cultured for 6 days with one renewal of medium after 3 days. AccuCheck Count Beads (Invitrogen) were used to ensure accurate quantification of cell proliferation in the flow cytometry. […]

B1: B11: fully human IgG1 antibody specific for ICAM-1; VH and VL sequences of FIG. 10 (SEQ ID NOs. 6 and 8) (antibody, listed as Homo sapiens, V domains shown)
VH: EVQLLESGGGLVQPGGSLRLSCAASGFTFSNAWMSWVRQAPGKGLEWVAFIWYDGSNKYYADSVKGRFTISRDNSKNTLYLQMNSLRAEDTAVYYCARYSGWYFDYWGQGTLVTVSS
VL: QSVLTQPPSASGTPGQRVTISCTGSSSNIGAGYDVHWYQQLPGTAPKLLIYDNNNRPSGVPDRFSGSKSGTSASLAISGLRSEDEADYYCQSYDSSLSAWLFGGGTKLTVLG
- binding / ICAM-1 expression (MCF-7 breast carcinoma): lower intensity
- binding / ICAM-1 expression [1]: did not express ICAM-1
- reduction of myeloma tumor growth (EJM): 98%
- reduction of myeloma tumor growth (NCI-H929): 99%
- tumor growth (OPM-2): did not affect tumor growth
- reduction of myeloma tumor growth (RPMI-8226): 96%
- T cell proliferation (T cells): did not induce T cell proliferation

Source: patent publication US9803013B2, “Biological materials and uses thereof” (BioInvent International AB, priority 2005, dated 2017)
